From US6696546

Experiments:
[1] = tested on: 8-mer PAP CRM-derived peptide (SKIRILVG)
[2] = tested on: 8-mer peptide of scrambled sequence (LRSGIKVI)
[3] = target: bacterial produced, purified his-PAP I (UniProt P25500)
bacterial produced, purified his-PAP I, sequence (P25500 other isoform, or with tags, fused parts or gaps): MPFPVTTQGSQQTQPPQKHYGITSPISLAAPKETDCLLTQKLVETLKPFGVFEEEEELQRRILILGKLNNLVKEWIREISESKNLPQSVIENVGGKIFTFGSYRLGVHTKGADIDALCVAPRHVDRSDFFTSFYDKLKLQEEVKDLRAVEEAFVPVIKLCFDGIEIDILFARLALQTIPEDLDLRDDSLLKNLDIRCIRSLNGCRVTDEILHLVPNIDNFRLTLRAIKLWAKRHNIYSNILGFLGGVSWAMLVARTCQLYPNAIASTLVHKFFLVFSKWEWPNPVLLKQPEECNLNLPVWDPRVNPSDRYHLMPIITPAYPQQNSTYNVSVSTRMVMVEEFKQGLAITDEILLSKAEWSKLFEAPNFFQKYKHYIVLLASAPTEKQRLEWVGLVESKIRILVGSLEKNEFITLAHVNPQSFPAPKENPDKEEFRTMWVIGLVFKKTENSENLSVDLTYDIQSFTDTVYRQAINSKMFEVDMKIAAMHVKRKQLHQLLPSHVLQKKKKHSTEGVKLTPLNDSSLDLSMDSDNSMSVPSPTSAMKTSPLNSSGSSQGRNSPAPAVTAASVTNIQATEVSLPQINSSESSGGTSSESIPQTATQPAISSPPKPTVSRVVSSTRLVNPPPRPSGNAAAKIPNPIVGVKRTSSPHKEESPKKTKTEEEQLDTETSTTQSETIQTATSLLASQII

Substance | pRB phosphorylation by cyclin B1/cdc2 (in vitro kinase assay, 32P; peptide at 18 µM) [1] | pRB phosphorylation by cyclin A/cdk2 (in vitro kinase assay, 32P, autoradiography; peptide at 9 µM and 18 µM) [1] | pRB phosphorylation by cyclin A/cdk2 (in vitro kinase assay, 32P; peptide at 9 µM and 18 µM) [2] | 32P incorporation into PAP (in vitro kinase assay, autoradiography) [3]
human cyclin B1/flu epitope-tagged p34cdc2 | PAP's CRM also strongly and specifically inhibited phosphorylation of pRB by cyclin B1/cdc2 | – | – | –
human cyclin A/flu-tagged cdk2 | – | PAP's CRM effectively inhibited pRB phosphorylation by cyclin A/cdk2 (lanes 2 and 3) | a peptide with PAP's CRM scrambled was also tested, and it showed no effect on pRB phosphorylation (lanes 4 and 5) | 32P was efficiently incorporated into PAP
